Where “and” joins values, the source holds several entries; their conditions need not be identical. Identical values can stand only once.
Biological target: T1, MUC16 expressed on the surface of the ovarian tumor cell line OVCAR-3 (human (endogenous in OVCAR-3), UniProt Q8WXI7 1-14507)
T1 construct: also called cell surface MUC16; MUC16 on OVCAR-3 cells; source: endogenous, on OVCAR-3 cells and the control subline #12
Experiment: flow cytometry on cells; OVCAR-3 cells with increasing amounts of meso-Fc for 1 h; mean fluorescence, non-linear regression (GraphPad Prism); apparent Kd
Settings: one partner purified

B1: recombinant mesothelin tagged with the Fc fragment of rabbit IgG (Fc fusion, human, UniProt Q13421 296-598, looked up)
chain: EVEKTACPSGKKAREIDESLIFYKKWELEACVDAALLATQMDRVNAIPFTYEQLDVLKHKLDELYPQGYPESVIQHLGYLFLKMSPEDIRKWNVTSLETLKALLEVNKGHEMSPQVATLIDRFVKGRGQLDKDTLDTLTAFYPGYLCSLSPEELSSVPPSSIWAVRPQDLDTCDPRQLDVLYPKARLAFQNMNGSEYFVKIQSFLGGAPTEDLKALSQQNVSMDLATFMKLRTDAVLPLTVAEVQKLLGPHVEGLKAEERHRPVRDWILRQRQDDLDTLGLGLQGGIPNGYLVLDLSMQEALS
notes: mesothelin, human, extracellular domain (the 40 kDa fragment of the 70 kDa precursor); GenBank AY743922; Modified pSecTag2 vector containing rabbit IgG Fc; Glycosylated (made in mammalian cells); also called meso-Fc; mesothelin-Fc; source: HEK 293T, transfected, harvested from the culture supernatant, purified (Hi-trap protein A column)
Kd: 5 nM and 5 to 10 nM

From article PMC1635730, “Mesothelin-MUC16 binding is a high affinity, N-glycan dependent interaction that facilitates peritoneal metastasis of ovarian tumors” (Molecular Cancer, 2006)
